What all share (conditions): both partners purified
In one assay the target is T1, Tof1 (S. cerevisiae (budding yeast), UniProt P53840 1-1238).
T1 construct: Tof1, budding yeast; the Tof1 chain of m2; Stood in the cross-linking sample as a chain of the Tof1-Csm3 complex; source: purified as part of Tof1-Csm3, as previously described (Yeeles et al. 2017)
T1 sequence (looked up): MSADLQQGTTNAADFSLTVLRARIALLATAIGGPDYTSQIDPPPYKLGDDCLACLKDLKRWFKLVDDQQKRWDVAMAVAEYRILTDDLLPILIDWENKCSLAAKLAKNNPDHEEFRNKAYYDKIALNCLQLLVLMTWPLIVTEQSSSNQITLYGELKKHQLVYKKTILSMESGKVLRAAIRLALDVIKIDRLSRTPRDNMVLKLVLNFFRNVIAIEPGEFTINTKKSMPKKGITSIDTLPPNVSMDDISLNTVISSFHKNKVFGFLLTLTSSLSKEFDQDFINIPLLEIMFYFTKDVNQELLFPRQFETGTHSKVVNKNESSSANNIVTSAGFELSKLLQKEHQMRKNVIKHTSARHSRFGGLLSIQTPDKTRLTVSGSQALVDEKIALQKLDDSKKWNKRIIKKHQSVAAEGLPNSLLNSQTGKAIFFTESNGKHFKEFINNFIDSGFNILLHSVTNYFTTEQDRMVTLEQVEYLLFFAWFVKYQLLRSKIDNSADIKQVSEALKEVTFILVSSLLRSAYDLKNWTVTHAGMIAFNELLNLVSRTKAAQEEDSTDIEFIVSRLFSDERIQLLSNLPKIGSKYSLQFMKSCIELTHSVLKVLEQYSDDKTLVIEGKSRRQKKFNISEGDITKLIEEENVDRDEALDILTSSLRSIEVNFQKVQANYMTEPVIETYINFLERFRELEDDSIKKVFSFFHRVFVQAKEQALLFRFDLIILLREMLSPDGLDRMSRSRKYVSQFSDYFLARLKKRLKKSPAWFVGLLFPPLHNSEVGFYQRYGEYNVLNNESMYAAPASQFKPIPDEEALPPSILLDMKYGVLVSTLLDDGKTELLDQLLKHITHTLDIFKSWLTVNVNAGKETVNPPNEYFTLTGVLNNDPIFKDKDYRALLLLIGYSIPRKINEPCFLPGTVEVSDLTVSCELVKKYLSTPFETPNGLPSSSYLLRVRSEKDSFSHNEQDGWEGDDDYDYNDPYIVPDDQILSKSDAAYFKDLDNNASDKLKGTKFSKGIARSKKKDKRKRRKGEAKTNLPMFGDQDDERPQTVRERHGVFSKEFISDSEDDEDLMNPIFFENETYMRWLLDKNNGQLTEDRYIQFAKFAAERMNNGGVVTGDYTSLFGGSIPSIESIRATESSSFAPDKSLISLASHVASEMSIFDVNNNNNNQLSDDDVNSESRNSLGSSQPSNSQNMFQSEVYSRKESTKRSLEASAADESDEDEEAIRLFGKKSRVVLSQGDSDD
Briefly: cross-linking; CLMS with sulfo-SDA; cohesin, Tof1-Csm3 and Chl1 with or without Mrc1 at 300-350 nM, 30 °C 5 min, cross-linker 2 h at 4 °C, UV 365 nm; LC-MS/MS, 1% FDR at residue-pair level; two samples merged.

The target of a further assay is T2, Chl1 (S. cerevisiae (budding yeast), UniProt P22516 1-861).
T2 construct: Chl1, budding yeast; codon-optimized ectopic copy; also called Flag-tagged Chl1; Chl1 helicase
T2 sequence (looked up): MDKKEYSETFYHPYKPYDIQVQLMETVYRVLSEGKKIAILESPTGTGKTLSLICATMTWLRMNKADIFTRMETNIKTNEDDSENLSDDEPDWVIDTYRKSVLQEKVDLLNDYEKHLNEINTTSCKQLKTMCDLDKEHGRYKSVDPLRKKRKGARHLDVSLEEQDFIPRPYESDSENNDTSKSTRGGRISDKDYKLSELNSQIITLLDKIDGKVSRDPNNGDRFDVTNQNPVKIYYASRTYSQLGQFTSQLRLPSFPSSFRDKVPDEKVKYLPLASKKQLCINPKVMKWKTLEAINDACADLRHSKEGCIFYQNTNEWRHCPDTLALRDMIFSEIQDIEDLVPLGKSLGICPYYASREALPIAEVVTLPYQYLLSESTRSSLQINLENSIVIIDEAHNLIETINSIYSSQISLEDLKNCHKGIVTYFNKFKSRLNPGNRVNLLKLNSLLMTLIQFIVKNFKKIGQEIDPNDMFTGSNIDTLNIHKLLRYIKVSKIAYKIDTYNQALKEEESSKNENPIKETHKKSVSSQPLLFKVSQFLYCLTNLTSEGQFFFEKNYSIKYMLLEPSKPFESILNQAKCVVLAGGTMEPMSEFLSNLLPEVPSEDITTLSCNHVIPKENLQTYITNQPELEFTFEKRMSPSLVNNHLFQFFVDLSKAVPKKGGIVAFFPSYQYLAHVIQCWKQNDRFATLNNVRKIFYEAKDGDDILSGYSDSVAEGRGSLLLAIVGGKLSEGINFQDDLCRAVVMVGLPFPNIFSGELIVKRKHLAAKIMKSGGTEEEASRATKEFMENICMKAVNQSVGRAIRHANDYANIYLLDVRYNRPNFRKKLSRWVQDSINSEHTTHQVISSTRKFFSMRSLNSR
The description is as above.

The target in another assay is T3, Smc1-Smc3 dimer (S. cerevisiae (budding yeast), UniProt P32908 1-1225; P47037 1-1230).
T3 construct: Smc1, cohesin subunit, budding yeast; Smc3, cohesin subunit, budding yeast; also called SMC dimer; SMC dimers (Smc1-Smc3); source: purified following the same protocol as cohesin tetramers (IgG agarose, 3C protease cleavage); not shown: Protein A, C-terminal, cleaved
T3 sequence (P32908 whole entry, chain 1 of 2): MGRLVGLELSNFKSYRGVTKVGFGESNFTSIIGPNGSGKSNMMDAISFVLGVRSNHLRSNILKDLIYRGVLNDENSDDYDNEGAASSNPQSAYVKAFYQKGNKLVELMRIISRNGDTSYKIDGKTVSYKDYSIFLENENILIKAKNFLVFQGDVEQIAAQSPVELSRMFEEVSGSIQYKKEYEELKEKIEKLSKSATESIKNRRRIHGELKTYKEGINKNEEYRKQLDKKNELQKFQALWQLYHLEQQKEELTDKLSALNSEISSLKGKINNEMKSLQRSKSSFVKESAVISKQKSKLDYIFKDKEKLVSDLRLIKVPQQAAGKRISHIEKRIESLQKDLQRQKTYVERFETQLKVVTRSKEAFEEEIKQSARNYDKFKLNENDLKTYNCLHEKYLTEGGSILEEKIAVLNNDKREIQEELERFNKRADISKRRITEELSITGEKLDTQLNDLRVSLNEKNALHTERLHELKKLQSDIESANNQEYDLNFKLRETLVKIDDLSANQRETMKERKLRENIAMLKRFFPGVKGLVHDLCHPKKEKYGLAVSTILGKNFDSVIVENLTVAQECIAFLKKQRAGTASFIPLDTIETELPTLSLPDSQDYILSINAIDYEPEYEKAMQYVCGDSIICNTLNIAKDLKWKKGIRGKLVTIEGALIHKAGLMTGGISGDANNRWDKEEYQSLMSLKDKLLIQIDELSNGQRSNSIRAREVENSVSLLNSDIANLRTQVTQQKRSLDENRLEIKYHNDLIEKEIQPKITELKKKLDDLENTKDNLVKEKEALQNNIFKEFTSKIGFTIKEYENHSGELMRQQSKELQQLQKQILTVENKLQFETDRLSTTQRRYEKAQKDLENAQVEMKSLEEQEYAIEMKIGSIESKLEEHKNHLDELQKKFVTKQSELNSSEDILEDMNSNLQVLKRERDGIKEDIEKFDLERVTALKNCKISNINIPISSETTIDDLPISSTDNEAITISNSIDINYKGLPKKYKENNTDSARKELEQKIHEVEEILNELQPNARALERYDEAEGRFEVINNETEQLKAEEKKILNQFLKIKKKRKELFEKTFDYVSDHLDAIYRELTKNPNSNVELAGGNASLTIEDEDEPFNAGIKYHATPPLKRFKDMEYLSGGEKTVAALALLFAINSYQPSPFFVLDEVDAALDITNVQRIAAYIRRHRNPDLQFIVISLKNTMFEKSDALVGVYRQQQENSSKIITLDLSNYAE
T3 sequence (P47037 whole entry, chain 2 of 2): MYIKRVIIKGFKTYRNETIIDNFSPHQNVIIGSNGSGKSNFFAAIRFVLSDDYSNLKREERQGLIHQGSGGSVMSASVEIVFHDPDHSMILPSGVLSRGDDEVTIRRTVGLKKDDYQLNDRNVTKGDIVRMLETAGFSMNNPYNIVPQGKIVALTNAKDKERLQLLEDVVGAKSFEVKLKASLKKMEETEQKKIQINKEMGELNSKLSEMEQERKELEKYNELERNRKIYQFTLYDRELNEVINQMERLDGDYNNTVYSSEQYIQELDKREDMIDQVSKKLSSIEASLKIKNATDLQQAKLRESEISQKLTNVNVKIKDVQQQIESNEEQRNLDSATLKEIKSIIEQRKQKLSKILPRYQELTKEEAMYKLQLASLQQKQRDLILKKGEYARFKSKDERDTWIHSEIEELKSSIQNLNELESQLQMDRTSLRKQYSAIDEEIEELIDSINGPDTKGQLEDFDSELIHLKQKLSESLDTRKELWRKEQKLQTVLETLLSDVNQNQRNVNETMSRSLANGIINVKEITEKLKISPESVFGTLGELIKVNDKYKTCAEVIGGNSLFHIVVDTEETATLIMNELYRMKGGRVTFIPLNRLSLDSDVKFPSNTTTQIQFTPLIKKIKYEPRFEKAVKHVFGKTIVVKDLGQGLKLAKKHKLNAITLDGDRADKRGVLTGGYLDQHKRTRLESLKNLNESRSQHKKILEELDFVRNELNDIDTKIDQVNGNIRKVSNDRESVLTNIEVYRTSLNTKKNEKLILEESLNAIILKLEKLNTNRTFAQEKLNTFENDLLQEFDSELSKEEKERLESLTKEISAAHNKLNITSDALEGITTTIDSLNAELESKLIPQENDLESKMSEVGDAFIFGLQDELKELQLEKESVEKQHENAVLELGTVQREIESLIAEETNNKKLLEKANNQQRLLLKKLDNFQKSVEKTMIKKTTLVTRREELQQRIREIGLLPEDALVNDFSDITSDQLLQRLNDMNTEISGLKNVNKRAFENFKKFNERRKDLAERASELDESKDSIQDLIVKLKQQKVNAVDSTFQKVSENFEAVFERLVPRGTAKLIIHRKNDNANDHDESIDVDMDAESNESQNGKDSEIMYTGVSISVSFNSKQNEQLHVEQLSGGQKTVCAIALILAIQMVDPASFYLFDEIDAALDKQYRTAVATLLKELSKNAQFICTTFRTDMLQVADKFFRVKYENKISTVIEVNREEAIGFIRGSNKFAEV
Briefly: pull-down; Tof1-Csm3 (200-600 nM) held on calmodulin dynabeads; cohesin tetramer, trimer or Smc1-Smc3 dimer as prey; interaction buffer with 100 mM potassium glutamate; Coomassie staining; benzonase or NaCl added where indicated.

Assay [1] has as its target T4, cohesin trimer (Smc1-Smc3-Scc1) (S. cerevisiae (budding yeast), UniProt P32908 1-1225; P47037 1-1230; Q12158 1-566).
T4 construct: Smc1, cohesin subunit, budding yeast; Smc3, cohesin subunit, budding yeast; Scc1, cohesin subunit, budding yeast; source: purified following the same protocol as cohesin tetramers (IgG agarose, 3C protease cleavage); copies: + +
Described as above.

Assay [2] has as its target T5, cohesin tetramer complex (Smc1-Smc3-Scc1-Scc3) (S. cerevisiae (budding yeast), UniProt P32908 1-1225; P47037 1-1230; Q12158 1-566; P40541 1-1150).
T5 construct: Smc1, cohesin subunit, budding yeast; Smc3, cohesin subunit, budding yeast; Scc1, cohesin subunit, budding yeast; Scc3, cohesin subunit, budding yeast; also called cohesin complex; source: purified as previously described (Minamino et al. 2018): IgG agarose, 3C protease cleavage; copies: + + +
Briefly: pull-down; cohesin tetramer (200-600 nM) held on Protein A dynabeads by anti-Pk antibody (Pk tag on Smc1); 200 nM prey, 30 °C, 5 min; 25 mM HEPES-KOH pH 7.6, 100 mM potassium glutamate, 10 mM magnesium acetate, 0.12% NP-40; SDS elution, Coomassie staining.

T4 sequence (P32908 whole entry, chain 1 of 2): as the sequence (P32908 whole entry, chain 1 of 2) above
T4 sequence (P47037 whole entry, chain 2 of 2): as the sequence (P47037 whole entry, chain 2 of 2) above
T5 sequence (P32908 whole entry, chain 1 of 3): as the sequence (P32908 whole entry, chain 1 of 2) above
T5 sequence (P47037 whole entry, chain 2 of 3): as the sequence (P47037 whole entry, chain 2 of 2) above
T5 sequence (P40541 whole entry, chain 4 of 3): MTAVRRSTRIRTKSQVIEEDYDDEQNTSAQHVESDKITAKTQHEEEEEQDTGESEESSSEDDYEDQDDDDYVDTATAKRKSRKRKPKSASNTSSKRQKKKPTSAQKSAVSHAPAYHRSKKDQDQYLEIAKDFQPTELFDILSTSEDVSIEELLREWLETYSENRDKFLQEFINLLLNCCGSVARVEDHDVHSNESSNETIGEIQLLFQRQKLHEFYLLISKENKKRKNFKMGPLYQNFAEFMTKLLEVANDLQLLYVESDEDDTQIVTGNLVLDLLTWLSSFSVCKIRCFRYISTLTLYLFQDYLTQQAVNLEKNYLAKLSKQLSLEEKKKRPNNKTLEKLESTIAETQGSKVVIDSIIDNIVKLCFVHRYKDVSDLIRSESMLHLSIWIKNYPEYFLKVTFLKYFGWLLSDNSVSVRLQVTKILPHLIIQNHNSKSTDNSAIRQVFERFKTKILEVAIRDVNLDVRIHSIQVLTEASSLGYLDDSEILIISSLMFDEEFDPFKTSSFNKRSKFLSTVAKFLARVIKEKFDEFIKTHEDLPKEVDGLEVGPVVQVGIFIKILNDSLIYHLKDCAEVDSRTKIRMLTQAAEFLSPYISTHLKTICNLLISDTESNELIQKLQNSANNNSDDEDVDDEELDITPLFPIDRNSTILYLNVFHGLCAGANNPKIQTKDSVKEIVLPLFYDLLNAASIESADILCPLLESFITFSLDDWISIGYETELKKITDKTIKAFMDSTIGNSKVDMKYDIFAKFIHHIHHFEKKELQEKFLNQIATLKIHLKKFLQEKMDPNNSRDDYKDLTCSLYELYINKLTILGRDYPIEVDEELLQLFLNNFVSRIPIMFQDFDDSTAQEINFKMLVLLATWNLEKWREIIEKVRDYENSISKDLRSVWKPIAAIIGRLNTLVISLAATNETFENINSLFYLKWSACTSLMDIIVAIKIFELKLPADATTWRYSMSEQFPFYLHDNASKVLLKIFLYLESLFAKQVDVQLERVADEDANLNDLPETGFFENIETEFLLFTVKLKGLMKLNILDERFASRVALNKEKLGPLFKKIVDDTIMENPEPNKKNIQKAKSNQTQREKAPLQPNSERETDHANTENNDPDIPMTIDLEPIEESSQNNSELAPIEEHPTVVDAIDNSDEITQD

B1: Scc1 (natural protein, S. cerevisiae (budding yeast), UniProt Q12158 1-566, looked up)
chain: MVTENPQRLTVLRLATNKGPLAQIWLASNMSNIPRGSVIQTHIAESAKEIAKASGCDDESGDNEYITLRTSGELLQGIVRVYSKQATFLLTDIKDTLTKISMLFKTSQKMTSTVNRLNTVTRVHQLMLEDAVTEREVLVTPGLEFLDDTTIPVGLMAQENSMERKVQGAAPWDTSLEVGRRFSPDEDFEHNNLSSMNLDFDIEEGPITSKSWEEGTRQSSRNFDTHENYIQDDDFPLDDAGTIGWDLGITEKNDQNNDDDDNSVEQGRRLGESIMSEEPTDFGFDLDIEKEAPAGNIDTITDAMTESQPKQTGTRRNSKLLNTKSIQIDEETENSESIASSNTYKEERSNNLLTPQPTNFTTKRLWSEITESMSYLPDPILKNFLSYESLKKRKIHNGREGSIEEPELNVSLNLTDDVISNAGTNDNSFNELTDNMSDFVPIDAGLNEAPFPEENIIDAKTRNEQTTIQTEKVRPTPGEVASKAIVQMAKILRKELSEEKEVIFTDVLKSQANTEPENITKREASRGFFDILSLATEGCIGLSQTEAFGNIKIDAKPALFERFINA
notes: Scc1, budding yeast; the Scc1 chain of m1; Stood in the cross-linking sample as a chain of cohesin; source: purified as part of cohesin, as previously described (Minamino et al. 2018)
Take B1: the binding result with Tof1 and with Chl1 was “binds” in each case.

B2: Tof1-Csm3 complex (complex, S. cerevisiae (budding yeast))
chain 1: MSADLQQGTTNAADFSLTVLRARIALLATAIGGPDYTSQIDPPPYKLGDDCLACLKDLKRWFKLVDDQQKRWDVAMAVAEYRILTDDLLPILIDWENKCSLAAKLAKNNPDHEEFRNKAYYDKIALNCLQLLVLMTWPLIVTEQSSSNQITLYGELKKHQLVYKKTILSMESGKVLRAAIRLALDVIKIDRLSRTPRDNMVLKLVLNFFRNVIAIEPGEFTINTKKSMPKKGITSIDTLPPNVSMDDISLNTVISSFHKNKVFGFLLTLTSSLSKEFDQDFINIPLLEIMFYFTKDVNQELLFPRQFETGTHSKVVNKNESSSANNIVTSAGFELSKLLQKEHQMRKNVIKHTSARHSRFGGLLSIQTPDKTRLTVSGSQALVDEKIALQKLDDSKKWNKRIIKKHQSVAAEGLPNSLLNSQTGKAIFFTESNGKHFKEFINNFIDSGFNILLHSVTNYFTTEQDRMVTLEQVEYLLFFAWFVKYQLLRSKIDNSADIKQVSEALKEVTFILVSSLLRSAYDLKNWTVTHAGMIAFNELLNLVSRTKAAQEEDSTDIEFIVSRLFSDERIQLLSNLPKIGSKYSLQFMKSCIELTHSVLKVLEQYSDDKTLVIEGKSRRQKKFNISEGDITKLIEEENVDRDEALDILTSSLRSIEVNFQKVQANYMTEPVIETYINFLERFRELEDDSIKKVFSFFHRVFVQAKEQALLFRFDLIILLREMLSPDGLDRMSRSRKYVSQFSDYFLARLKKRLKKSPAWFVGLLFPPLHNSEVGFYQRYGEYNVLNNESMYAAPASQFKPIPDEEALPPSILLDMKYGVLVSTLLDDGKTELLDQLLKHITHTLDIFKSWLTVNVNAGKETVNPPNEYFTLTGVLNNDPIFKDKDYRALLLLIGYSIPRKINEPCFLPGTVEVSDLTVSCELVKKYLSTPFETPNGLPSSSYLLRVRSEKDSFSHNEQDGWEGDDDYDYNDPYIVPDDQILSKSDAAYFKDLDNNASDKLKGTKFSKGIARSKKKDKRKRRKGEAKTNLPMFGDQDDERPQTVRERHGVFSKEFISDSEDDEDLMNPIFFENETYMRWLLDKNNGQLTEDRYIQFAKFAAERMNNGGVVTGDYTSLFGGSIPSIESIRATESSSFAPDKSLISLASHVASEMSIFDVNNNNNNQLSDDDVNSESRNSLGSSQPSNSQNMFQSEVYSRKESTKRSLEASAADESDEDEEAIRLFGKKSRVVLSQGDSDD
chain 2: MDQDFDSLLLGFNDSDSVQKDPTVPNGLDGSVVDPTIADPTAITARKRRPQVKLTAEKLLSDKGLPYVLKNAHKRIRISSKKNSYDNLSNIIQFYQLWAHELFPKAKFKDFMKICQTVGKTDPVLREYRVSLFRDEMGMSFDVGTRETGQDLERQSPMVEEHVTSAEERPIVADSFAQDKRNVNNVDYDNDEDDDIYHLSYRNRRGRVLDERGNNETVLNNVVPPKEDLDALLKTFRVQGPVGLEENEKKLLLGWLDAHRKMEKGSMTEEDVQLIQSLEEWEMNDIEGQHTHYDLLPGGDEFGVDQDELDAMKEMGF
notes: Tof1, budding yeast; Csm3, budding yeast; Held on calmodulin dynabeads when used as bait; source: purified as previously described (Yeeles et al. 2017)
Consider B2, for which the binding result (with Smc1-Smc3 dimer; in assay [1]; in assay [2]) was “binds” in each case.

The values above are taken from article PMC10247859, “Replisome-cohesin interactions provided by the Tof1-Csm3 and Mrc1 cohesion establishment factors” (Chromosoma, 2023).
